Changes are numbered by the printed parent chain.
B1: TPP-15370 (antibody, human IgG1, lambda, V domains shown)
VH: EVQLLESGGGLVQPGGSLRLSCAASGFTFSSYGMHWVRQAPGKGLEWVSAIGTGGDTYYADSVMGRFTISRDNSKNTLYLQMNSLRAEDTAVYYCARRDDYTSRDAFDVWGQGTLVTVSS
VL: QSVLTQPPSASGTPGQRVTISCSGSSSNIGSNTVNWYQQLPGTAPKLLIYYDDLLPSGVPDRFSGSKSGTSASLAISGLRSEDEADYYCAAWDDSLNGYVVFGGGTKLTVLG
notes: human IgG1; also called IgG1, hit from panning; parental mAb
B2: TPP-15374 (antibody, human IgG1, lambda, V domains shown)
VH: EVQLLESGGGLVQPGGSLRLSCAASGFTFSSYEMNWVRQAPGKGLEWVSGISWNSGSIGYADSVKGRFTISRDNSKNTLYLQMNSLRAEDTAVYYCARSGYSSSWFDPDFDYWGQGTLVTVSS
VL: QSVLTQPPSASGTPGQRVTISCTGSSSNIGAGYDVHWYQQLPGTAPKLLIYGNSNRPSGVPDRFSGSKSGTSASLAISGLRSEDEADYYCSSYAGSNPYVVFGGGTKLTVLG
notes: as for B1
B3: TPP-17755 (antibody, human IgG1, lambda, V domains shown)
VH: EVQLLESGGGLVQTGGSLRLSCAASGFTFSDYAMSWVRQAPGKGLEWVSWIYYDSGSKYYADSVKGRFTISRDNSKNTLYLQMNSLRAEDTAVYYCAKLNGDFDYWGQGTLVTVSS
VL: QSVLTQPPSASGTPGQRVTISCSGSSSNIGNNDVSWYQQLPGTAPKLLIYADSHRPSGVPDRFSGSKSGTSASLAISGLRSEDEADYYCGAWDSSLSGYVFGGGTKLTVLG
notes: also called Samsung; Samsung Prior Art F11
B4: TPP-23298 (antibody, human IgG4 S228P, lambda, V domains shown)
VH: B1 VH with S30Y, G33A, H35S, M64K, V109Y
VL: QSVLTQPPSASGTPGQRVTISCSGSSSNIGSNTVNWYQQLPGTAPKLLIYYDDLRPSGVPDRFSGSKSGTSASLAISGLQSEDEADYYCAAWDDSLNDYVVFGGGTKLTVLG
B5: TPP-30788 (antibody, human IgG1, kappa, V domains shown)
VH: EVQLVESGGGLVQPGGSLRLSCAASGFTFSSYYMSWVRQAPGKGLEWVSTIIKSGGYAYYPDSVKDRFTISRDNSKNTLYLQMSSLRAEDTAVYYCVRGGQGAMDYWGQGTTVTVSS
VL: EIVLTQSPATLSLSPGERATLSCRASQSIGDYLHWYQQKPGQAPRLLIKYASQSISGIPARFSGSGSGTDFTLTITSLEPEDFAVYYCQQGYSFPYTFGGGTKLEIKR
notes: prior art, WO 2020/225400; also called BI clone I; Böhringer (BI) Clone I
B6: TPP-30789 (antibody, human IgG1, kappa, V domains shown)
VH: B5 VH with T28P
VL: B5 VL
notes: prior art, WO 2020/225400; also called BI clone II; Böhringer (BI) Clone II
B7: TPP-30790 (antibody, human IgG1, kappa, V domains shown)
VH: B5 VH with P14L, S84N, R98K
VL: B5 VL with K49Y, T76S
notes: prior art, WO 2020/225400; also called BI clone III; Böhringer (BI) Clone III
B8: TPP-30791 (antibody, human IgG1, kappa, V domains shown)
VH: B5 VH with V12L, P14L, Y80N, S84N, R98K
VL: B5 VL with T76S
notes: prior art, WO 2020/225400; also called BI clone IV; Böhringer (BI) Clone IV

The binders below were run against T1, Sema3C (R&D Systems) (Homo sapiens (Human), UniProt Q99985 21-751) (assay: ELISA).
T1 sequence: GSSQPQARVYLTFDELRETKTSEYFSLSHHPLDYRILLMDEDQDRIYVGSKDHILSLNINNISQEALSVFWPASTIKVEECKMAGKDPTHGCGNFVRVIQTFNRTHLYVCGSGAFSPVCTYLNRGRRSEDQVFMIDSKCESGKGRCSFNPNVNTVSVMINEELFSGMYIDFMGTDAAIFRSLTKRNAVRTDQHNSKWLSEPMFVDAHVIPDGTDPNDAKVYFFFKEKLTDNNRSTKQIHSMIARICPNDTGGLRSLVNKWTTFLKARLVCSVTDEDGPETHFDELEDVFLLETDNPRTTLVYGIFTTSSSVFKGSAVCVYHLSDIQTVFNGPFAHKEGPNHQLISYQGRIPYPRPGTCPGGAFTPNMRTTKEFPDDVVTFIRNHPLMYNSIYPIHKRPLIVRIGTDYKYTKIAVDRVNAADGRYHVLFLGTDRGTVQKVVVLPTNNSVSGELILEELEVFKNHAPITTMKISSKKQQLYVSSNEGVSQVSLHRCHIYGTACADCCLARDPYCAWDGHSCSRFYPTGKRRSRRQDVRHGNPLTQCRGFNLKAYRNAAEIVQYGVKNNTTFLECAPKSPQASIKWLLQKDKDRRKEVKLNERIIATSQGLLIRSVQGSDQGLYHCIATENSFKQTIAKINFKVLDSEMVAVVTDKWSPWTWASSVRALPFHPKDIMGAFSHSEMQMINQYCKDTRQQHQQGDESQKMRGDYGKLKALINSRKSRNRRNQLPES
B1: no binding. B2: no binding.

The binders below were run against T2, Sema3D (R&D Systems) (Homo sapiens (Human), UniProt O95025 37-777) (assay: ELISA).
T2 sequence: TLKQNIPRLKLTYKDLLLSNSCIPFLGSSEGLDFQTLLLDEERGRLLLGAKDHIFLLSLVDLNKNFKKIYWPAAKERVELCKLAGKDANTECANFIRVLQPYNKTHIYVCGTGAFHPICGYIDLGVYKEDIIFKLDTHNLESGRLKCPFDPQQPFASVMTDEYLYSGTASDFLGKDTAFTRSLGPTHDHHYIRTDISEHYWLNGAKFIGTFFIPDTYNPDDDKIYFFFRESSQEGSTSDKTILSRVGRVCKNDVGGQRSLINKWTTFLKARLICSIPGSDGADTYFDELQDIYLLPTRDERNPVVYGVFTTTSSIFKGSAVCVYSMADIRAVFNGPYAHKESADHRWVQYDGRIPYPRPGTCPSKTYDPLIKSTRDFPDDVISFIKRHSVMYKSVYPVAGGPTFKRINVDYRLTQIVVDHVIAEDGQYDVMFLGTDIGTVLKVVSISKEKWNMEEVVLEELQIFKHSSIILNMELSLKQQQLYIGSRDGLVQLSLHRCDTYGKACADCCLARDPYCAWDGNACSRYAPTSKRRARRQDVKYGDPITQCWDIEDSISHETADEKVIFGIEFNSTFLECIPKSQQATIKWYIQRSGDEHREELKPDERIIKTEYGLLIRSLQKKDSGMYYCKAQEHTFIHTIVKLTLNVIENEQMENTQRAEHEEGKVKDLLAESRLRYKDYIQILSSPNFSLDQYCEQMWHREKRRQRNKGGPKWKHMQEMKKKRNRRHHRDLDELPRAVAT
B1: no binding. B2: no binding.

These binders were tested against T3, Human Semaphorin3A-Sema Domain, TPP-19068 (human, UniProt Q14563 21-569) (assay: SPR, 100 nM TPP-19068, binding experiment).
T3 construct: produced inhouse in HEK293-6E; also called human monovalent Sema3A domain
T3 sequence: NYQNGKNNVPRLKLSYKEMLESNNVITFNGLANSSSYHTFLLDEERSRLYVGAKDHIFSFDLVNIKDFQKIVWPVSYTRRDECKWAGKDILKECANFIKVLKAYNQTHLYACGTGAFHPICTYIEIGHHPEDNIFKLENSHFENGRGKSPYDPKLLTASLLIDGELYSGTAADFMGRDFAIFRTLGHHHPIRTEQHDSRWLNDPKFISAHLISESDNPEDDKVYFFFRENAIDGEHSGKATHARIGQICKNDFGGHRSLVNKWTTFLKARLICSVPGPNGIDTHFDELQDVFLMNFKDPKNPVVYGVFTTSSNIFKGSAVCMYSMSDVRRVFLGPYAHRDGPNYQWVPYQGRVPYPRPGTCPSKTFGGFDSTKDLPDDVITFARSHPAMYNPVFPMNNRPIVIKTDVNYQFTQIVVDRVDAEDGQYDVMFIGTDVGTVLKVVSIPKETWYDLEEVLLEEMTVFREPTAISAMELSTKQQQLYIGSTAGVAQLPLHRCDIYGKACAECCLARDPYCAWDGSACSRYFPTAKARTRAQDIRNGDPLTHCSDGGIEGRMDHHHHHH
Protocol: To assess the binding kinetics and affinity of anti-Sema3A antibodies as well as their species cross-reactivity profile, binding assays were conducted using surface plasmon resonance (SPR). Binding assays were performed on a Biacore T200 instrument or on a Biacore 8K+ instrument (Cytiva) at 25° C. using assay buffer HBS P+, 300 mM NaCl, 0.75 mM CaCl₂, 2.5 mM MgCl₂, 1 mg/ml BSA, 0.05% NaN₃. Antibodies were captured either via anti-human Fc IgGs (“Human antibody capture kit”, Order No. BR100839, Cytiva) or in case of Fc-tagged analytes by anti-human Fab IgGs (“Human Fab capture kit”, Order No. 28958325, Cytiva) covalently amine coupled to a Series S CM5 sensor chip (Cytiva). The amine coupling was carried out according to the manufacturer's instructions using 1-ethyl-3-(3-dimethylaminopropyl) carbodiimide hydrochloride (EDC), N-hydroxysuccinimide (NHS) and ethanolamine HCl, pH 8.5 (“Amine Coupling Kit” BR-1000-50, Cytiva.). For phage display hits Fc-tagged human and mouse Sema3A was used as analytes in a concentration range from 1.56-200 nM. Human, mouse, cynomolgus, rat, dog and pig monovalent Sema3A domain were used as analytes in a concentration series from […] in multi cycle kinetics mode or in 100 nM for binding analysis only. The sensor surface was regenerated with glycine pH 2.0 after each antigen injection. Obtained sensorgrams were double referenced (subtraction of reference flow cell signal and buffer injection) and were fitted to a 1:1 Langmuir binding model to derive kinetic data using the Biacore T200 Evaluation software.
With B3 the Kd was 6.2 nM. In the case of B4, the Kd is reported as 0.13 nM. With B5 the Kd was 0.098 nM.

What follows are binders tested against T4, Human Semaphorin3A-Fc (R&D Systems), TPP-13211 (human) (assay: ELISA, signal on TPP-13211 divided by signal on TPP-19068).
T4 construct: R&D Systems 1250-S3; also called recombinant human Sema3A-Fc chimera
T4 sequence (chain, as listed by the source limits assumed): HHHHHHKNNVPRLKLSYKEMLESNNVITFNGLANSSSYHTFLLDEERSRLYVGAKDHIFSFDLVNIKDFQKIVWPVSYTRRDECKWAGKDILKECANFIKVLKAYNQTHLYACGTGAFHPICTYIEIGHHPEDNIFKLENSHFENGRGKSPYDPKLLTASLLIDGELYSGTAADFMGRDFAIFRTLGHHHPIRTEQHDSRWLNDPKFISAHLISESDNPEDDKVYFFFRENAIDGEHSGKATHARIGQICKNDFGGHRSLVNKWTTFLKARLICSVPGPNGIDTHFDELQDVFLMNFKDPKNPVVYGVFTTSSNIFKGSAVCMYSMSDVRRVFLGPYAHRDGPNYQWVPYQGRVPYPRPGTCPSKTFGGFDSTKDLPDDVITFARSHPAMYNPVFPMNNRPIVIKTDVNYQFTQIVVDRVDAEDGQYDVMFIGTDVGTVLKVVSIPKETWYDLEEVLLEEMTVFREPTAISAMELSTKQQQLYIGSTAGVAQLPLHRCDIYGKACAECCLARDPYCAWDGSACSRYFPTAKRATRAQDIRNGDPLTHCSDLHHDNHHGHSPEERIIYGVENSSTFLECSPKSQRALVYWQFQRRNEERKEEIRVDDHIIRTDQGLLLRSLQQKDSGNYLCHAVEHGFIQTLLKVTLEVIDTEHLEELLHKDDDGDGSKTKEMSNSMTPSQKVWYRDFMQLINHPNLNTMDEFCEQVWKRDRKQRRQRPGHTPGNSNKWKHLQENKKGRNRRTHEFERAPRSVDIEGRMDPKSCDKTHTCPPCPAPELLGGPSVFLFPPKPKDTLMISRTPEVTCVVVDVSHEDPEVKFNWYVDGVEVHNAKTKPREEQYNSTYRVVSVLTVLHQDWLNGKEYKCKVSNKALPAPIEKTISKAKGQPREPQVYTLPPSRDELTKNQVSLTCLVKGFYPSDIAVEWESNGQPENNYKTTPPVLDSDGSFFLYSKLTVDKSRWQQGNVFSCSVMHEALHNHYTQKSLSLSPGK
Text: In the in vivo situation Sema3A exists in both forms side by side.
In the case of B4, the “Ratio ELISA binding TPP-13211/TPP-19068” value is reported as 0.66. With B5 the “Ratio ELISA binding TPP-13211/TPP-19068” value was 0.19. B6 was tested, and the “Ratio ELISA binding TPP-13211/TPP-19068” value was 0.2. In the case of B7, the “Ratio ELISA binding TPP-13211/TPP-19068” value is reported as 0.19. With B8 the “Ratio ELISA binding TPP-13211/TPP-19068” value was 0.21.

Reference: US20240254222A1 (Bayer, published 2024)
